Data: the supplement of paper PMC9233669
Variants at the floor of the assay were thinned out.

Experiments:
biotinyl-Phe-oxazolone = test: self-aminoacylation, catalytic enhancement (BFO) (fold over background); higher = more active; k-Seq, kA / k0A0; sequences stand for … in GGGAAUGGAUCCACAUCUACGAAUUC…UUCACUGCAGACUUGACGAAGCUG
How it was run: (§1)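 Mutagenized RNA pools with a 21-nt variable region (0.43 μM) were reacted with each biotinyl-aminoacyl-oxazolone at 2–1250 μM for 90 minutes at room temperature, in 50 μL HEPES/NaCl/KCl/MgCl2/CaCl2 buffer containing 5% acetonitrile at pH 6.9–7.0. RNA captured on streptavidin was quantified by triplicate qPCR and by Illumina sequencing. The fraction reacted for each sequence was fit to a pseudo-first-order model with bootstrapping, and catalytic enhancement is the median kA divided by the uncatalyzed rate, taken as the low-activity peak of a bimodal Gaussian fit.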

biotinyl-Ile-oxazolone = test: self-aminoacylation, catalytic enhancement (BIO) (fold over background); higher = more active; k-Seq, kA / k0A0; sequences stand for … in GGGAAUGGAUCCACAUCUACGAAUUC…UUCACUGCAGACUUGACGAAGCUG
How it was run: as §1

biotinyl-Met-oxazolone = test: self-aminoacylation, catalytic enhancement (BMO) (fold over background); higher = more active; k-Seq, kA / k0A0; sequences stand for … in GGGAAUGGAUCCACAUCUACGAAUUC…UUCACUGCAGACUUGACGAAGCUG
How it was run: as §1

biotinyl-Val-oxazolone = test: self-aminoacylation, catalytic enhancement (BVO) (fold over background); higher = more active; k-Seq, kA / k0A0; sequences stand for … in GGGAAUGGAUCCACAUCUACGAAUUC…UUCACUGCAGACUUGACGAAGCUG
How it was run: as §1

biotinyl-Leu-oxazolone = test: self-aminoacylation, catalytic enhancement (BLO) (fold over background); higher = more active; k-Seq, kA / k0A0; sequences stand for … in GGGAAUGGAUCCACAUCUACGAAUUC…UUCACUGCAGACUUGACGAAGCUG
How it was run: as §1

biotinyl-Trp-oxazolone = test: self-aminoacylation, catalytic enhancement (BWO) (fold over background); higher = more active; k-Seq, kA / k0A0; sequences stand for … in GGGAAUGGAUCCACAUCUACGAAUUC…UUCACUGCAGACUUGACGAAGCUG
How it was run: as §1

Row | Sequence | self-aminoacylation (biotinyl-Phe-oxazolone) | self-aminoacylation (biotinyl-Ile-oxazolone) | self-aminoacylation (biotinyl-Met-oxazolone) | self-aminoacylation (biotinyl-Val-oxazolone) | self-aminoacylation (biotinyl-Leu-oxazolone) | self-aminoacylation (biotinyl-Trp-oxazolone)
1 | AUUCACCGAGGACAUCGGGUG [Fam2.2 aminoacylation ribozyme variant] | 35.9 | 3.59 | 5.56 | 3.78 | 6.02 | 5.74
2 | AUUCACCGAGGUCAGCGGGUG [Fam2.2 aminoacylation ribozyme variant] | 38.8 | 5.26 | 5.57 | 4.67 | 6.67 | 6.61
3 | AUUCACCGAGGUCAUAGGGUG [Fam2.2 aminoacylation ribozyme variant] | 7.43 | 1.71 | 2.29 | 1.91 | 3.17 | 2.21
4 | AUUCACCGAGGUCAUCCGGUG [Fam2.2 aminoacylation ribozyme variant] | 80.2 | 7.31 | 9.07 | 8.04 | 12.4 | 10.1
5 | AUUCACCGAGGUCAUCGAGUG [Fam2.2 aminoacylation ribozyme variant] | 12.6 | 1.75 | 2.89 | 2.17 | 3.6 | 2.82
6 | AUUCACCGAGGUCAUCGGGUA [Fam2.2 aminoacylation ribozyme variant] | 25 | 3.33 | 2.93 | 3.97 | 3.22 | 4
7 | AUUCACCGAGGUCAUCGGGUG [Fam2.2 aminoacylation ribozyme variant] | 87 | 6.19 | 11.3 | 6.85 | 14.2 | 9.63
8 | AUUCACCGAGGUCAUCGGGUU [Fam2.2 aminoacylation ribozyme variant] | 9.59 | 2.26 | 2.61 | 2.84 | 3.15 | 2.7
9 | AUUCACCGAGUUCAUCGGGUG [Fam2.2 aminoacylation ribozyme variant] | 37.1 | 3.56 | 4.92 | 3.14 | 5.07 | 4.3
10 | AUUCACCUAAGUCAUCCGGUG [Fam2.2 aminoacylation ribozyme variant] | 63.4 | 5.54 | 9.71 | 5.61 | 12.2 | 10.3
11 | AUUCACCUAAGUCAUCGAGUG [Fam2.2 aminoacylation ribozyme variant] | 22.9 | 3.92 | 5.75 | 3.78 | 7.69 | 5.16
12 | AUUCACCUAAGUCAUCGGGGG [Fam2.2 aminoacylation ribozyme variant] | 10.9 | 1.92 | 2.48 | 1.76 | 2.5 | 2.27
13 | AUUCACCUAAGUCAUCGGGUG [Fam2.2 aminoacylation ribozyme variant] | 74.2 | 5.75 | 9.66 | 5.58 | 12.8 | 8.93
14 | AUUCACCUAAGUCAUCUGGUG [Fam2.2 aminoacylation ribozyme variant] | 16.6 | 2 | 2.52 | 1.86 | 3.72 | 2.98
15 | AUUCACCUAAGUCAUGGGGUG [Fam2.2 aminoacylation ribozyme variant] | 33.4 | 3.71 | 5.16 | 3.47 | 7.26 | 5.16
16 | AUUCACCUAAGUCCUCGGGUG [Fam2.2 aminoacylation ribozyme variant] | 45.8 | 4.5 | 7.52 | 4.11 | 10.1 | 6.98
17 | AUUCACCUACAUCAUCGGGUG [Fam2.2 aminoacylation ribozyme variant] | 22.1 | 2.19 | 3.63 | 2.06 | 3.91 | 3.07
18 | AUUCACCUACGUCACCGGGUG [Fam2.2 aminoacylation ribozyme variant] | 36.4 | 2.72 | 4.43 | 2.84 | 5.96 | 3.84
19 | AUUCACCUACGUCAUCGGGAG [Fam2.2 aminoacylation ribozyme variant] | 0.516 | 0.803 | 1.23 | 0.861 | 1.07 | 0.502
20 | AUUCACCUACGUCAUCGGUUG [Fam2.2 aminoacylation ribozyme variant] | 0.512 | 0.789 | 0.738 | 1.05 | 0.647 | 0.436
21 | AUUCACCUAGAACAUCGGGUG [Fam2.2 aminoacylation ribozyme variant] | 16.8 | 2.39 | 2.73 | 2.47 | 2.88 | 3.56
22 | AUUCACCUAGACCAUCGGGUG [Fam2.2 aminoacylation ribozyme variant] | 22.4 | 2.48 | 4.26 | 3.62 | 5.27 | 3.81
23 | AUUCACCUAGAUCACCGGGUG [Fam2.2 aminoacylation ribozyme variant] | 11.5 | 2.42 | 2.76 | 2.55 | 3.69 | 2.86
24 | AUUCACCUAGAUCAUCGGGGG [Fam2.2 aminoacylation ribozyme variant] | 8.71 | 1.79 | 2.29 | 1.91 | 2.08 | 2.13
25 | AUUCACCUAGCUAAUCGGGUG [Fam2.2 aminoacylation ribozyme variant] | 4.49 | 1.6 | 1.93 | 1.62 | 2.05 | 1.85
26 | AUUCACCUAGCUCAUAGGGUG [Fam2.2 aminoacylation ribozyme variant] | 1.04 | 1.08 | 1.24 | 1.13 | 1.37 | 0.658

Row | Sequence | self-aminoacylation (biotinyl-Phe-oxazolone) | self-aminoacylation (biotinyl-Ile-oxazolone) | self-aminoacylation (biotinyl-Met-oxazolone) | self-aminoacylation (biotinyl-Val-oxazolone) | self-aminoacylation (biotinyl-Leu-oxazolone) | self-aminoacylation (biotinyl-Trp-oxazolone)
27 | AUUCACCUAGCUCAUCGGAUG [Fam2.2 aminoacylation ribozyme variant] | 0.472 | 0.779 | 0.609 | 0.82 | 0.772 | 0.452
28 | AUUCACCUAGGACAGCGGGUG [Fam2.2 aminoacylation ribozyme variant] | 15.1 | 2.23 | 2.49 | 2.21 | 2.58 | 2
29 | AUUCACCUAGGACAUCGGAUG [Fam2.2 aminoacylation ribozyme variant] | 0.553 | 0.988 | 1.06 | 1.29 | 0.999 | 0.529
30 | AUUCACCUAGGACAUCGGGCG [Fam2.2 aminoacylation ribozyme variant] | 15.1 | 2.31 | 2.2 | 2.38 | 2.79 | 2.27
31 | AUUCACCUAGGACAUCGGUUG [Fam2.2 aminoacylation ribozyme variant] | 2.89 | 0.888 | 0.919 | 1.03 | 1.28 | 0.663
32 | AUUCACCUAGGACAUGGGGUG [Fam2.2 aminoacylation ribozyme variant] | 42.9 | 3.4 | 5.06 | 3.42 | 7.25 | 5.18
33 | AUUCACCUAGGACCUCGGGUG [Fam2.2 aminoacylation ribozyme variant] | 20.7 | 2.77 | 3.6 | 2.63 | 3.69 | 3.54
34 | AUUCACCUAGGCCAUAGGGUG [Fam2.2 aminoacylation ribozyme variant] | 4.48 | 2.09 | 2.45 | 2.11 | 2.54 | 2.58
35 | AUUCACCUAGGCCAUCGGGAG [Fam2.2 aminoacylation ribozyme variant] | 0.861 | 1.1 | 1.69 | 1.39 | 0.965 | 1.05
36 | AUUCACCUAGGCCAUCGGGUG [Fam2.2 aminoacylation ribozyme variant] | 28.6 | 3.04 | 4.47 | 3.45 | 5.51 | 4.09
37 | AUUCACCUAGGCCAUCGUGUG [Fam2.2 aminoacylation ribozyme variant] | 2.6 | 0.998 | 0.898 | 0.966 | 0.946 | 0.88
38 | AUUCACCUAGGGCAGCGGGUG [Fam2.2 aminoacylation ribozyme variant] | 39.8 | 5.78 | 7.29 | 4.76 | 7.39 | 7.98
39 | AUUCACCUAGGGCAUCGGAUG [Fam2.2 aminoacylation ribozyme variant] | 0.411 | 0.923 | 0.506 | 0.873 | 0.894 | 0.646
40 | AUUCACCUAGGGCAUCGGCUG [Fam2.2 aminoacylation ribozyme variant] | 7.35 | 1.75 | 2.03 | 2.01 | 2.42 | 1.64
41 | AUUCACCUAGGGCAUCGGGCG [Fam2.2 aminoacylation ribozyme variant] | 15.7 | 3.54 | 3.47 | 4.35 | 4.74 | 2.7
42 | AUUCACCUAGGGGAUCGGGUG [Fam2.2 aminoacylation ribozyme variant] | 32 | 3.44 | 4.34 | 3.26 | 6.82 | 4.28
43 | AUUCACCUAGGUAAUCGGGUG [Fam2.2 aminoacylation ribozyme variant] | 17.5 | 1.85 | 2.8 | 1.85 | 3.64 | 2.81
44 | AUUCACCUAGGUAAUGGGGUG [Fam2.2 aminoacylation ribozyme variant] | 27.6 | 2.4 | 5.17 | 2.58 | 6.27 | 4.53
45 | AUUCACCUAGGUCAACGCGUG [Fam2.2 aminoacylation ribozyme variant] | 43.4 | 3.59 | 5.53 | 3.6 | 7.6 | 5.44
46 | AUUCACCUAGGUCAACGGAUG [Fam2.2 aminoacylation ribozyme variant] | 0.356 | 0.758 | 0.667 | 0.726 | 0.549 | 0.259
47 | AUUCACCUAGGUCAACGGGUU [Fam2.2 aminoacylation ribozyme variant] | 0.45 | 1.22 | 1.33 | 1.16 | 1.26 | 0.946
48 | AUUCACCUAGGUCACCAGGUG [Fam2.2 aminoacylation ribozyme variant] | 1.24 | 1.51 | 1.51 | 1.49 | 1.61 | 1.64
49 | AUUCACCUAGGUCACCGGGUU [Fam2.2 aminoacylation ribozyme variant] | 10 | 1.77 | 2.18 | 1.98 | 2.59 | 3.01
50 | AUUCACCUAGGUCACGGGGUG [Fam2.2 aminoacylation ribozyme variant] | 22.1 | 2.98 | 4.08 | 3.03 | 5.76 | 4.51
51 | AUUCACCUAGGUCAGAGGGUG [Fam2.2 aminoacylation ribozyme variant] | 4.38 | 1.1 | 1.36 | 1.14 | 1.49 | 1.68
